Experimental data as given in US9309320.

Molecular target: murine CD95L, endogenous in SMA-560 tumor explants (murine) (UniProt P41047)
Assay: cell-based or functional assay

Sequence of UniProt P41047 (P41047 whole entry): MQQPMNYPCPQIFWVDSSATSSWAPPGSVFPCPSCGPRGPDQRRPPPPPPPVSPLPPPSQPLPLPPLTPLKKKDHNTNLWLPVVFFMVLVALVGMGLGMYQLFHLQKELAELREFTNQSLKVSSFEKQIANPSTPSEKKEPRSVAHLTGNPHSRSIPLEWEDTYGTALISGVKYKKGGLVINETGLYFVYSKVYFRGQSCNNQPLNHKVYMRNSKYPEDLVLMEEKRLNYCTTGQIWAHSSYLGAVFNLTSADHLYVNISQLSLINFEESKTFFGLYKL

decrease in migration of cells out of SMA-560 tumor explants into collagen: 50%
Substance: MFL3, anti murine-CD95L neutralizing antibody
